Entries after “also recorded” stand apart in the source; their conditions may differ. Ends that are not written are not given here.
Tests used:
[1] = test system: C-terminal 50 amino acids of GCC (GCCC50); type: binding
[2] = test system: GCC catalytic domains (Cyan-GCCcat and Yellow-GCCcat); type: cell-based
[3] = test system: FLAG-GCC in HEK-293 cells; type: cell-based
[4] = test system: C-terminal 50 amino acids of MRP4 (MRP4C50); type: binding
MRP4C50 and GCCC50 = type: binding; conditions: 4 °C
[5] = target: Cyan- and yellow-tagged GCC catalytic domains (human); experiment: FRET or BRET; sensitized FRET in HEK 293 cells between Cyan-GCCcat and Yellow-GCCcat, co-expressed with pCDNA3 empty vector, HA-NHERF3, HA-NHERF4, HA-NHERF4 PDZ1 or HA-NHERF4 delPDZ1; STc (1 uM) stimulation
GCC = type: biochemical, human
[6] = test system: CFTR-dependent fluid secretion, organoids; conditions: cited from earlier work
[7] = test system: CFTR-dependent fluid secretion, mouse enteroids; type: cell-based
[8] = target: T1, GCC catalytic domain (GCCcat, amino acids 824-954), purified (human, UniProt P25092 824-954); experiment: HRP-based binding assay on S-beads; 20 ug purified GCCcat immobilised on S-beads, 7.5 uM Biotin N4-195 overnight at 4 C, washed with PBS 0.2% Triton-X-100, streptavidin HRP with TMB, absorbance at 450 nm; control: S-beads without GCCcat; conditions: both partners purified
T1 construct: also called GCC catalytic subunit

HA-GCC = HA-GCC (human, UniProt P25092 24-1073); experiment: cell-based or functional assay
GST-NHERF1 = target: T2, GST-NHERF1 (human, UniProt O14745 1-358); experiment: far-Western, overlay or dot blot; dot blot: GST-NHERF1-4 and GST on nitrocellulose, GCCC50 overlaid, probed with in-house anti-GCC rabbit polyclonal antibody; saturating NHERF, > 1.2 pmoles; conditions: both partners purified
T2 construct: also called EBP50; GST-tagged NHERF1
T2 sequence (looked up): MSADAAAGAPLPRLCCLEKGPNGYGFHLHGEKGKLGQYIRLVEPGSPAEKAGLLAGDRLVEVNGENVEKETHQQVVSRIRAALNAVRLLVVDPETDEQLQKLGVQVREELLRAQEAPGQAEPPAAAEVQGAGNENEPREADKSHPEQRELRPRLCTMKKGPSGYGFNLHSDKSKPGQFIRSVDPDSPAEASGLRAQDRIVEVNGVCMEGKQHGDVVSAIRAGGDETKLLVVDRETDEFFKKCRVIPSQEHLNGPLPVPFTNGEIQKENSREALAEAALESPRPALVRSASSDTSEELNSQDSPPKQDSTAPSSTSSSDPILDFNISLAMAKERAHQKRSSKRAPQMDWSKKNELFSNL

GST-NHERF2 = target: T3, GST-NHERF2 (human, UniProt Q15599 1-337); experiment: as above; conditions: both partners purified
T3 construct: also called E3KARP; GST-tagged NHERF2

GST-NHERF3 [9] = target: T4, GST-NHERF3 (human, UniProt Q5T2W1 1-519); experiment: as above; conditions: both partners purified
T4 construct: also called PDZK1; CAP70
T4 sequence (looked up): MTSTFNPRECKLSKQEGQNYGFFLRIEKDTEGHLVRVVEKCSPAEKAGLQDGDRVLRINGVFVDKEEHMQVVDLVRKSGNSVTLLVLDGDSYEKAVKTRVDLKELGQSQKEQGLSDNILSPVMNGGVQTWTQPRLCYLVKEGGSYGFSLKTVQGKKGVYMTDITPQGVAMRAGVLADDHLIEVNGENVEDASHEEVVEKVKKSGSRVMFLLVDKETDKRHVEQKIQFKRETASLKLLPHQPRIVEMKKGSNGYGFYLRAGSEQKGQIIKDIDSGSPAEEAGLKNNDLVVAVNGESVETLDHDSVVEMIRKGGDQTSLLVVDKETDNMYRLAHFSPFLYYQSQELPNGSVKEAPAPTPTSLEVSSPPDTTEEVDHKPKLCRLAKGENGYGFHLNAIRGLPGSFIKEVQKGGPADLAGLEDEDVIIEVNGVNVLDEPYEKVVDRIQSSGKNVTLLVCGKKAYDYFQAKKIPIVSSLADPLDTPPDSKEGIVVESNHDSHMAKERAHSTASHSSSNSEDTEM

GST-NHERF3 [10] = target: T4, GST-NHERF3; experiment: far-Western, overlay or dot blot; slot blot (macromolecular complex assay): GST-His-S-MRP4-C50 (0, 5 and 20 ug) and GST alone on nitrocellulose, 5 ug GST-NHERF3 overnight at 4 C, then 0.5 ug purified Flag-GCC-C50 at 4 C; detected with a GCC C-terminal specific antibody; conditions: both partners purified

T1 sequence (P25092 824-954): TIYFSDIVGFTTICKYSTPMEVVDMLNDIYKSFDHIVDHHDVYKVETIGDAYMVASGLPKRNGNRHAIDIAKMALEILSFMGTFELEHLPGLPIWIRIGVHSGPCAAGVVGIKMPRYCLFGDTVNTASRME

NHERF3: PDZ adaptor protein; GST-fusion protein or HA-tagged construct
Binding order of NHERFs to GCC [1]: highest binding affinity for GCC among the NHERF proteins; also recorded: NHERF3> NHERF1> NHERF2> NHERF4
FRET efficiency of GCCcat oligomerization [2]: 0.51 ± 0.08
Binding to GCC with increasing concentrations of STc [3]: not affected
Binding order of NHERFs to MRP4 [4]: NHERF3> NHERF2≥ NHERF1> NHERF4
Macromolecular complex formation of GCC and MRP4 via NHERF3 (MRP4C50 and GCCC50): GCC could exist in a macromolecular complex with MRP4 via NHERF3

Cyan- and yellow-tagged GCC catalytic domains (domain or fragment)
FRET efficiency of GCCcat oligomerization (control, empty vector) [5]: 0.54

HA-NHERF4 PDZ1 (domain or fragment)
FRET efficiency of GCCcat oligomerization with this protein co-expressed [5]: 0.21

H-RHAHDVARAQL-OH [N4-195]
GCC activity (cGMP) in the presence of single peptide (GCC): did not affect GCC activity

C=C[C@@]1(C)CC(=O)[C@]2(O)[C@@]3(C)[C@@H](O)CCC(C)(C)[C@@H]3[C@H](O)[C@H](OC(C)=O)[C@@]2(C)O1 [Forskolin]
Fluid secretion response (organoid swelling) [6]: highly robust fluid secretion response

H-LERPRFCLL-OH [N4-110, peptide in NHERF4 PDZ1 domain homologous to GCC catalytic domain]
GCC activity (cGMP) in the presence of single peptide (GCC): did not affect GCC activity

H-PRCDRVLHHFLRAALLQEAR-OH [N4-scrambled, scrambled peptide with same amino acid composition as N4-110 and N4-195 combined]
STc-stimulated secretion with scrambled peptide, high concentrations [7]: some non-specific inhibition was observed at high concentrations
STc-stimulated secretion with scrambled peptide, lower concentrations [7]: did not reduce STc-stimulated secretion at lower concentrations

RHAHDVARAQL (not fully specified (N-terminus); also: biotin label, position not given here, also called N4-Biotin) [Biotin-N4-195 peptide]
binding result [8]: binds

B1: NHERF1: PDZ adaptor protein; purified as GST-fusion protein (protein)
chain: MSADAAAGAPLPRLCCLEKGPNGYGFHLHGEKGKLGQYIRLVEPGSPAEKAGLLAGDRLVEVNGENVEKETHQQVVSRIRAALNAVRLLVVDPETDEQLQKLGVQVREELLRAQEAPGQAEPPAAAEVQGAGNENEPREADKSHPEQRELRPRLCTMKKGPSGYGFNLHSDKSKPGQFIRSVDPDSPAEASGLRAQDRIVEVNGVCMEGKQHGDVVSAIRAGGDETKLLVVDRETDEFFKKCRVIPSQEHLNGPLPVPFTNGEIQKENSREALAEAALESPRPALVRSASSDTSEELNSQDSPPKQDSTAPSSTSSSDPILDFNISLAMAKERAHQKRSSKRAPQMDWSKKNELFSNL
modifications: left off: GST, end not stated, kept
Binding order of NHERFs to GCC [1]: NHERF3> NHERF1> NHERF2> NHERF4
Binding order of NHERFs to MRP4 [4]: NHERF3> NHERF2≥ NHERF1> NHERF4

B2: NHERF2: PDZ adaptor protein; purified as GST-fusion protein (protein)
chain: MAAPEPLRPRLCRLVRGEQGYGFHLHGEKGRRGQFIRRVEPGSPAEAAALRAGDRLVEVNGVNVEGETHHQVVQRIKAVEGQTRLLVVDQETDEELRRRQLTCTEEMAQRGLPPAHDPWEPKPDWAHTGSHSSEAGKKDVSGPLRELRPRLCHLRKGPQGYGFNLHSDKSRPGQYIRSVDPGSPAARSGLRAQDRLIEVNGQNVEGLRHAEVVASIKAREDEARLLVVDPETDEHFKRLRVTPTEEHVEGPLPSPVTNGTSPAQLNGGSACSSRSDLPGSDKDTEDGSAWKQDPFQESGLHLSPTAAEAKEKARAMRVNKRAPQMDWNRKREIFSNF
modifications: left off: GST, end not stated, kept
Binding order of NHERFs to GCC [1]: NHERF3> NHERF1> NHERF2> NHERF4
Binding order of NHERFs to MRP4 [4]: NHERF3> NHERF2≥ NHERF1> NHERF4

B3: GST-NHERF4 (natural protein, human, UniProt Q86UT5 1-571, looked up)
chain: MVTPSPPGNHSLSLEAPRLHTASDLLGNHSLGLPLITALVGSRDRRGRVFSPVPVPLPTNPTTQHPTRQKLPSTLSGHRVCQAHGEPVLGLCPLLPLFCCPPHPPDPWSLERPRFCLLSKEEGKSFGFHLQQELGRAGHVVCRVDPGTSAQRQGLQEGDRILAVNNDVVEHEDYAVVVRRIRASSPRVLLTVLARHAHDVARAQLGEDAHLCPTLGPGVRPRLCHIVKDEGGFGFSVTHGNQGPFWLVLSTGGAAERAGVPPGARLLEVNGVSVEKFTHNQLTRKLWQSGQQVTLLVAGPEVEEQCRQLGLPLAAPLAEGWALPTKPRCLHLEKGPQGFGFLLREEKGLDGRPGQFLWEVDPGLPAKKAGMQAGDRLVAVAGESVEGLGHEETVSRIQGQGSCVSLTVVDPEADRFFSMVRLSPLLFLENTEAPASPRGSSSASLVETEDPSLEDTSVPSVPLGSRQCFLYPGPGGSYGFRLSCVASGPRLFISQVTPGGSAARAGLQVGDVILEVNGYPVGGQNDLERLQQLPEAEPPLCLKLAARSLRGLEAWIPPGAAEDWALASDLL
inhibition of the cGMP formation of HA-GCC immunoprecipitated on HA beads by 200 nM purified GST-NHERF4, relative to the GST-only control (HA-GCC): 38%
FRET efficiency of GCCcat oligomerization with this protein co-expressed [5]: 0.17

AEFSDMIANSLQKRQAAGIRSQKPRRVASYKKGTLEYLQLNTTDKESTYF (domain or fragment, human, UniProt P25092 1024-1073, looked up) [C-terminal 50 amino acids of GCC (GCCC50)]
binding result (GST-NHERF1): binds
binding result (GST-NHERF2): binds
binding result (GST-NHERF3 [9]): binds

AEFSDMIANSLQKRQAAGIRSQKPRRVASYKKGTLEYLQLNTTDKESTYF (domain or fragment, human, UniProt P25092 1024-1073, looked up, also called GCCC50) [Flag-GCC-C-terminal 50 aa]
binding result (GST-NHERF3 [10]): binds
